# Test results reported in patent publication US9969998B2, “Compositions of adenosine deaminase-2 (ADA2), variants thereof and methods of using same” (Halozyme, Inc., priority 2014, dated 2018).
# Positions count from the first letter of the chain named. Names may count otherwise.
# B1: S265N/K374E: ADA2 combination variant SEQ ID NO:60 (protein)
# chain: IDETRAHLLLKEKMMRLGGRLVLNTKEELANERLMTLKIAEMKEAMRTLIFPPSMHFFQAKHLIERSQVFNILRMMPKGAALHLHDIGIVTMDWLVRNVTYRPHCHICFTPRGIMQFRFAHPTPRPSEKCSKWILLEDYRKRVQNVTEFDDSLLRNFTLVTQHPEVIYTNQNVVWSKFETIFFTISGLIHYAPVFRDYVFRSMQEFYEDNVLYMEIRARLLPVYELSGEHHDEEWSVKTYQEVAQKFVETHPEFIGIKIIYNDHRSKDVAVIAESIRMAMGLRIKFPTVVAGFDLVGHEDTGHSLHDYKEALMIPAKDGVKLPYFFHAGETDWQGTSIDRNILDALMLNTTRIGHGFALSKHPAVRTYSWEKDIPIEVCPISNQVLKLVSDLRNHPVATLMATGHPMVISSDDPAMFGAKGLSYDFYEVFMGIGGMKADLRTLKQLAMNSIKYSTLLESEKNTFMEIWKKRWDKFIADVATK
# modifications: human ADA2 S262N/K371E, mature numbering
# B2: S265N/K374D: ADA2 combination variant SEQ ID NO:59 (protein)
# chain: B1 chain with E371D
# modifications: human ADA2 S262N/K371D, mature numbering
# B3: S265N/R23E: ADA2 combination variant SEQ ID NO:61 (protein)
# chain: B1 chain with R20E, E371K
# modifications: human ADA2 S262N/R20E, mature numbering
# B4: S265N/R23E/K374E: ADA2 combination variant SEQ ID NO:63 (protein)
# chain: B1 chain with R20E
# modifications: human ADA2 S262N/R20E/K371E, mature numbering
# Experiments:
# [1] = Heparin binding ELISA (heparin coated microtiter plate); settings: single and S265N combination variants (Table 34)
# Procedure: A 96-well plate was coated with 100 μL of 200 μg/mL heparin sodium salt (Calibochem, EMD Milipore, Billerica, Mass.; Cat. No. 375095) in Na2CO3 buffer (pH 9.6), overnight at 4° C. The wells were blocked with 5% milk in PBS, and washed 6 times with PBS. 3 μM of select rHuADA2 variants (see Table 20), WT rHuADA2 (positive control) and WT rHuADA1 (negative control) were added to the wells individually and incubated for 2 hours at room temperature, followed by washing 6 times with PBS. 100 μL of 1:1000 diluted horseradish peroxidase (HRP)-anti-FLAG antibody (Abcam, Cambridge, UK; Cat. No. Ab1238) was added to the wells to detect binding and incubated at room temperature for 1 hour. The ELISA reactions were developed by adding the 3,3′,5,5′-Tetramethylbenzidine (TMB) substrate solution (Pierce, Thermo Fisher Scientific, Rockford, Ill.) according the manufacturer's instructions and reading the optical density at 450 nm (OD450) on a plate reader.
# [2] = Kinetic assessment of adenosine deaminase activity (ammonia assay, Michaelis-Menten); assay type: biochemical; settings: for Km / Vmax / kcat: [E] = 8.5 nM; for kcat: kcat=Vmax/0.0085/60; for kinetics properties compared to WT: pH 7.6 and pH 6.5
# Procedure: Adenosine deaminase activity was determined by the measurement of ammonia released from adenosine when broken down to inosine. Ammonia was measured using a commercially available Ammonia Assay kit (Cat. No. AA0100, Sigma-Aldrich, St. Louis, Mo.). The kit contains dry reagents containing α-ketoglutaric acid and NADPH, which were reconstituted with 5 mL water prior to use in the assay. Ammonia reacts with α-ketogluaric acid (KGA) and reduced nicotinamide adenine dinucleotide phosphate (NADPH) in the presence of L-glutamate dehydrogenase (GDH).
# Kinetics parameters of rHuADA2 WT and variants were compared using this assay at different adenosine concentrations at pH 7.6 and 6.5. Adenosine concentrations ranging from 20 μM to 20 mM were used. Sub-molar concentration of adenosine stock was prepared in 1N NaOH.
# For the enzymatic assays at pH 7.6, adenosine was serially diluted with 100 mM sodium acetate (NaOAc), pH 4.9. A 2× reaction mixture was prepared, containing reconstituted ammonia assay reagent (containing about 4 mM α-ketoglutarate and about 300 μM NADPH), WT rHuADA2 or variants at 1 μg/mL (17 nM) and glutamate dehydrogenase (GDH, 1:50 dilution). 85 μL of adenosine was added to 85 μL 2× mixture in duplicate in a UV-transparent half-area plate. The change in absorbance (ΔA) at 340 nm over time at room temperature was monitored.
# For the enzymatic assay at pH 6.5, adenosine was serially diluted with 200 mM piperazine-N,N′-bis(2-ethanesulfonic acid) (PIPES), pH 6.5. A 2× reaction mixture in 200 mM PIPES, pH 6.5 was prepared, containing 4 mM α-ketoglutarate, 300 μM NADPH, 1 μg/mL (17 nM) rHuADA2 or variants and 50 U/mL GDH (Cat No. G2626, Sigma-Aldrich). The enzymatic reaction was initiated by adding equal volume of adenosine to the 2× mixture in a UV-transparent half-area plate as described above, and the change in absorbance (AA) at 340 nm over time at room temperature was monitored.
# Adenosine deaminase activity in mU/mL (μM/min equivalent) was calculated using the following formula: 1 mU/mL=−(−ΔA/min×Tv)/(Sv×ϵ×1) • where Tv=total volume (170 μL), Sv=sample volume (85 μL), ϵ=6.22×10^−3 μM^−1 cm^−1, 1=1 cm.
# The activity data were fitted with non-linear regression of Michaelis-Menten equation using Graphpad Prism software to obtain Km and Vmax. Other kinetics parameters such as kcat and kcat/Km were also determined.
# [3] = Spectrophotometric adenosine deaminase assay at varying pH (pH optimum); assay type: biochemical
# Procedure: Adenosine deaminase activity of rHuADA2 and variants at varying pH were assessed to determine the pH optimum of each. The adenosine deaminase activity was determined spectrophotometrically by direct measurement of changes in adenosine absorbance. […] During the deamination reaction, the absorbance of ADO decreases while that of INO increases with time. Since the dynamic changes in absorbance make it difficult to monitor activity at a single wavelength, the relative ADO activity was determined as a ratio of the ADO peak to isobestic point (i.e. the wavelength where ADO and INO have the same extinction coefficient). The isobestic point, which is 253 nm, remains unchanged and is concentration independent, so that it is the reference point to correct for volume or intensity discrepancies.
# To construct the standard curve for ADO and INO, a series of solution mixtures in 0.001% Tween-20 containing different concentrations of ADO and INO were prepared. The total concentration of ADO and INO mix was 50 μM, in 1×PBS (10 mM phosphate, 137 mM NaCl, 2.7 mM KCl), pH 7.4. The samples were scanned with the wavelengths between 220 nm and 300 nm to determine the isosbestic point, where all spectra cross.
# For performing the spectrophotometric adenosine deaminase assay of ADA2 and variants, a 2× solution containing 10 mM ADO in 100 mM potassium phosphate buffer (KPB), 0.1% Tween-20 at different pHs (i.e. 5.5, 6, 6.5, 6.75, 7, 7.25, 7.4, 7.75 and 8) were prepared. A separate 2× solution containing 2 μg/mL WT rHuADA2 or variants were prepared in the same 100 mM potassium phosphate buffer (KPB), 0.1% Tween-20 at the respective pH (i.e. 5.5, 6, 6.5, 6.75, 7, 7.25, 7.4, 7.75 and 8). An equal volume of the ADO solution and the ADA2 solution (wildtype or variants) were mixed to initiate reaction. At each time point (i.e. 1, 3, 5, 7, 9, 11, 13 and 15 min), a small aliquot (4 μl) was removed and diluted 50 times by adding to 196 μl 1×PBS, pH 7.4. The diluted samples were further diluted 2 fold (in duplicates) by adding 85 μl samples to 85 μl 1×PBS in a UV-transparent half area plate. The absorbance at 253 nm and 261 nm were measured of each diluted sample.
# Adenosine concentration was determined using the A261/A253 ratio and the standard curve. Adenosine deaminase activity was measured by negative change in ADO concentration per min×100.
# [4] = Thermal stability by differential scanning fluorimetry (DSF); assay type: physicochemical; settings: 0.1-1 mg/mL protein
# Procedure: The stability of the rHuADA2 WT and variants was measured by differential scanning fluorimetry (DSF) at increasing temperatures. DSF measures conformational stability, which correlates with thermal stability. The melting temperature (Tm) in DSF is defined as the midpoint of the protein unfolding transition.
# Non-PEGylated WT rHuADA2, non-PEGylated rHuADA2 variants, and PEGylated forms of WT rHuADA2 and rHuADA2 variants were prepared at concentrations of 0.1-1 mg/mL and mixed with the ROX™ protein thermal shift dye (Applied Biosystems, Carlsbad, Calif.; Cat. No. 4461146) to a final dye concentration that corresponds to a 125-fold dilution of the stock ROX™ solution. Protein samples were then loaded into 96-well plate at a volume of 20 μL/well in triplicate. A ViiA7 RT-PCR System (Applied Biosystems, Carlsbad, Calif.) was used to measure the shift in fluorescence as the temperature of the samples were increased. The reactions were subjected to the following steps: incubation at 25° C. for 2 min; ramping of temperature from 25 to 99° C. at a rate of 0.05° C. per second; followed by a 99° C. incubation for 2 min. The wavelengths used for emission and excitation were 623 nanometers (nm) and 580 nm, respectively.
Molecule,Heparin Binding ELISA Average OD450 [1],Km ([2]; pH 6.5),Vmax ([2]; pH 6.5),kcat ([2]; pH 6.5),Km ([2]; pH 7.6),Vmax ([2]; pH 7.6),kcat ([2]; pH 7.6),kinetics properties compared to WT [2],Adenosine deaminase activity Δ [ADO]/min × (−100) ([3]; pH 5.5),Adenosine deaminase activity Δ [ADO]/min × (−100) ([3]; pH 6),Adenosine deaminase activity Δ [ADO]/min × (−100) ([3]; pH 6.5),Adenosine deaminase activity Δ [ADO]/min × (−100) ([3]; pH 6.75),Adenosine deaminase activity Δ [ADO]/min × (−100) ([3]; pH 7),Adenosine deaminase activity Δ [ADO]/min × (−100) ([3]; pH 7.25),Adenosine deaminase activity Δ [ADO]/min × (−100) ([3]; pH 7.4),Adenosine deaminase activity Δ [ADO]/min × (−100) ([3]; pH 7.75),Adenosine deaminase activity Δ [ADO]/min × (−100) ([3]; pH 8),"Tm, melting temperature by DSF [4]"
B1,0.6,1410 µM,57.13 µM/min,112.02 s⁻¹,2540 µM,87.44 µM/min,171.45 s⁻¹,greatest improvements in catalytic activity at pH 6.5,31.84,44.31,50.23,54.55,59.68,60.07,57.15,28.28,1.77,61.3 °C
B2,0.92,1510 µM,43.85 µM/min,85.98 s⁻¹,2860 µM,78.29 µM/min,153.51 s⁻¹,–,22.89,33.51,39.06,41.58,45.98,42.69,43.37,22.29,4.36,60.8 °C
B3,1.03,1430 µM,53.25 µM/min,104.41 s⁻¹,2900 µM,63.13 µM/min,123.78 s⁻¹,greatest improvements in catalytic activity at pH 6.5,27.34,38.26,45.58,48.49,51.90,56.12,50.44,24.42,4.63,59.6 °C
B4,0.93,1290 µM,63.74 µM/min,124.98 s⁻¹,2870 µM,82.38 µM/min,161.53 s⁻¹,greatest improvements in catalytic activity at pH 6.5,37.94,52.70,66.08,67.95,74.68,77.81,67.77,35.97,2.04,60.4 °C
